Experimental findings from US20210388087A1 (Chugai, published 2021) are described below.

B1: H183/L072 VH F100gL (antibody, name in Kabat numbering, V domains shown)
VH: QVQLVESGGGLVQPGRSLRLSCAASGFTFSNAWMHWVRQAPGKGLEWVAQIKDKGNAYAAYYAPSVKGRFTISRDDSKNSIYLQMNSLKTEDTAVYYCHYVHYASASTVLPALGVDAWGQGTTVTVSS
VL: DIVMTQSPLSLPVTPGEPASISCQASQELVHMNRNTYLHWYQQKPGQAPRLLIYKVSNRFPGVPDRFSGSGSGTDFTLKISRVEAEDVGVYYCAQGTSVPFTFGQGTKLEIK
B2: H183/L072 VH F100gM (antibody, name in Kabat numbering, V domains shown)
VH: QVQLVESGGGLVQPGRSLRLSCAASGFTFSNAWMHWVRQAPGKGLEWVAQIKDKGNAYAAYYAPSVKGRFTISRDDSKNSIYLQMNSLKTEDTAVYYCHYVHYASASTVLPAMGVDAWGQGTTVTVSS
VL: DIVMTQSPLSLPVTPGEPASISCQASQELVHMNRNTYLHWYQQKPGQAPRLLIYKVSNRFPGVPDRFSGSGSGTDFTLKISRVEAEDVGVYYCAQGTSVPFTFGQGTKLEIK
B3: H183/L072 VH G26Q (antibody, name in Kabat numbering, V domains shown)
VH: QVQLVESGGGLVQPGRSLRLSCAASQFTFSNAWMHWVRQAPGKGLEWVAQIKDKGNAYAAYYAPSVKGRFTISRDDSKNSIYLQMNSLKTEDTAVYYCHYVHYASASTVLPAFGVDAWGQGTTVTVSS
VL: DIVMTQSPLSLPVTPGEPASISCQASQELVHMNRNTYLHWYQQKPGQAPRLLIYKVSNRFPGVPDRFSGSGSGTDFTLKISRVEAEDVGVYYCAQGTSVPFTFGQGTKLEIK
B4: H183/L072 VH G26H (antibody, name in Kabat numbering, V domains shown)
VH: QVQLVESGGGLVQPGRSLRLSCAASHFTFSNAWMHWVRQAPGKGLEWVAQIKDKGNAYAAYYAPSVKGRFTISRDDSKNSIYLQMNSLKTEDTAVYYCHYVHYASASTVLPAFGVDAWGQGTTVTVSS
VL: DIVMTQSPLSLPVTPGEPASISCQASQELVHMNRNTYLHWYQQKPGQAPRLLIYKVSNRFPGVPDRFSGSGSGTDFTLKISRVEAEDVGVYYCAQGTSVPFTFGQGTKLEIK
B5: H183/L072 VH G26F (antibody, name in Kabat numbering, V domains shown)
VH: QVQLVESGGGLVQPGRSLRLSCAASFFTFSNAWMHWVRQAPGKGLEWVAQIKDKGNAYAAYYAPSVKGRFTISRDDSKNSIYLQMNSLKTEDTAVYYCHYVHYASASTVLPAFGVDAWGQGTTVTVSS
VL: DIVMTQSPLSLPVTPGEPASISCQASQELVHMNRNTYLHWYQQKPGQAPRLLIYKVSNRFPGVPDRFSGSGSGTDFTLKISRVEAEDVGVYYCAQGTSVPFTFGQGTKLEIK
B6: H183/L072 VH G26D (antibody, name in Kabat numbering, V domains shown)
VH: QVQLVESGGGLVQPGRSLRLSCAASDFTFSNAWMHWVRQAPGKGLEWVAQIKDKGNAYAAYYAPSVKGRFTISRDDSKNSIYLQMNSLKTEDTAVYYCHYVHYASASTVLPAFGVDAWGQGTTVTVSS
VL: DIVMTQSPLSLPVTPGEPASISCQASQELVHMNRNTYLHWYQQKPGQAPRLLIYKVSNRFPGVPDRFSGSGSGTDFTLKISRVEAEDVGVYYCAQGTSVPFTFGQGTKLEIK
B7: H183/L072 VH G26N (antibody, name in Kabat numbering, V domains shown)
VH: QVQLVESGGGLVQPGRSLRLSCAASNFTFSNAWMHWVRQAPGKGLEWVAQIKDKGNAYAAYYAPSVKGRFTISRDDSKNSIYLQMNSLKTEDTAVYYCHYVHYASASTVLPAFGVDAWGQGTTVTVSS
VL: DIVMTQSPLSLPVTPGEPASISCQASQELVHMNRNTYLHWYQQKPGQAPRLLIYKVSNRFPGVPDRFSGSGSGTDFTLKISRVEAEDVGVYYCAQGTSVPFTFGQGTKLEIK
B8: H183/L072 VH G26M (antibody, name in Kabat numbering, V domains shown)
VH: QVQLVESGGGLVQPGRSLRLSCAASMFTFSNAWMHWVRQAPGKGLEWVAQIKDKGNAYAAYYAPSVKGRFTISRDDSKNSIYLQMNSLKTEDTAVYYCHYVHYASASTVLPAFGVDAWGQGTTVTVSS
VL: DIVMTQSPLSLPVTPGEPASISCQASQELVHMNRNTYLHWYQQKPGQAPRLLIYKVSNRFPGVPDRFSGSGSGTDFTLKISRVEAEDVGVYYCAQGTSVPFTFGQGTKLEIK
B9: H183/L072 VH F100gP (antibody, name in Kabat numbering, V domains shown)
VH: QVQLVESGGGLVQPGRSLRLSCAASGFTFSNAWMHWVRQAPGKGLEWVAQIKDKGNAYAAYYAPSVKGRFTISRDDSKNSIYLQMNSLKTEDTAVYYCHYVHYASASTVLPAPGVDAWGQGTTVTVSS
VL: DIVMTQSPLSLPVTPGEPASISCQASQELVHMNRNTYLHWYQQKPGQAPRLLIYKVSNRFPGVPDRFSGSGSGTDFTLKISRVEAEDVGVYYCAQGTSVPFTFGQGTKLEIK
B10: H183/L072 VH G26I (antibody, name in Kabat numbering, V domains shown)
VH: QVQLVESGGGLVQPGRSLRLSCAASIFTFSNAWMHWVRQAPGKGLEWVAQIKDKGNAYAAYYAPSVKGRFTISRDDSKNSIYLQMNSLKTEDTAVYYCHYVHYASASTVLPAFGVDAWGQGTTVTVSS
VL: DIVMTQSPLSLPVTPGEPASISCQASQELVHMNRNTYLHWYQQKPGQAPRLLIYKVSNRFPGVPDRFSGSGSGTDFTLKISRVEAEDVGVYYCAQGTSVPFTFGQGTKLEIK
B11: H183/L072 VH G26L (antibody, name in Kabat numbering, V domains shown)
VH: QVQLVESGGGLVQPGRSLRLSCAASLFTFSNAWMHWVRQAPGKGLEWVAQIKDKGNAYAAYYAPSVKGRFTISRDDSKNSIYLQMNSLKTEDTAVYYCHYVHYASASTVLPAFGVDAWGQGTTVTVSS
VL: DIVMTQSPLSLPVTPGEPASISCQASQELVHMNRNTYLHWYQQKPGQAPRLLIYKVSNRFPGVPDRFSGSGSGTDFTLKISRVEAEDVGVYYCAQGTSVPFTFGQGTKLEIK
B12: H183/L072 VH G26P (antibody, name in Kabat numbering, V domains shown)
VH: QVQLVESGGGLVQPGRSLRLSCAASPFTFSNAWMHWVRQAPGKGLEWVAQIKDKGNAYAAYYAPSVKGRFTISRDDSKNSIYLQMNSLKTEDTAVYYCHYVHYASASTVLPAFGVDAWGQGTTVTVSS
VL: DIVMTQSPLSLPVTPGEPASISCQASQELVHMNRNTYLHWYQQKPGQAPRLLIYKVSNRFPGVPDRFSGSGSGTDFTLKISRVEAEDVGVYYCAQGTSVPFTFGQGTKLEIK
B13: H183/L072 VH G26E (antibody, name in Kabat numbering, V domains shown)
VH: QVQLVESGGGLVQPGRSLRLSCAASEFTFSNAWMHWVRQAPGKGLEWVAQIKDKGNAYAAYYAPSVKGRFTISRDDSKNSIYLQMNSLKTEDTAVYYCHYVHYASASTVLPAFGVDAWGQGTTVTVSS
VL: DIVMTQSPLSLPVTPGEPASISCQASQELVHMNRNTYLHWYQQKPGQAPRLLIYKVSNRFPGVPDRFSGSGSGTDFTLKISRVEAEDVGVYYCAQGTSVPFTFGQGTKLEIK
B14: H183/L072 VH G26K (antibody, name in Kabat numbering, V domains shown)
VH: QVQLVESGGGLVQPGRSLRLSCAASKFTFSNAWMHWVRQAPGKGLEWVAQIKDKGNAYAAYYAPSVKGRFTISRDDSKNSIYLQMNSLKTEDTAVYYCHYVHYASASTVLPAFGVDAWGQGTTVTVSS
VL: DIVMTQSPLSLPVTPGEPASISCQASQELVHMNRNTYLHWYQQKPGQAPRLLIYKVSNRFPGVPDRFSGSGSGTDFTLKISRVEAEDVGVYYCAQGTSVPFTFGQGTKLEIK

This assay concerns the target T1, Human CD3eg linker (human).
T1 construct: Single chain: epsilon and gamma subunits of human CD3 joined by a 29-mer linker, Flag-tag at the C-terminus; also called recombinant human CD3
T1 chain: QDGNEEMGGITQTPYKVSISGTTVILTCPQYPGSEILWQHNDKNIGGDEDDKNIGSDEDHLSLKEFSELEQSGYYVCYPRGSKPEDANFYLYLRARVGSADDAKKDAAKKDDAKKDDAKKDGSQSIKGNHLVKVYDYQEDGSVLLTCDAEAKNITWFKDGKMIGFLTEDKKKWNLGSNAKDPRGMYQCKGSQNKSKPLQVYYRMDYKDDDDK
The assay is described as follows: Biacore SPR, vs template H183/L072. On the technique in general: In SPR one partner is held on a chip, and binding of the other changes the refractive index at the surface.
B1: the “fold change of affinity” value was 1.3 fold.
Turning to B2, the “fold change of affinity” value was found to be 1.4 fold.
On to B3, for which the “fold change of affinity” value is 0.4 fold.
On to B4, for which the “fold change of affinity” value came to 0 fold.
B5: the “fold change of affinity” value amounted to 0.4 fold.
Take B6: the “fold change of affinity” value amounted to 0.2 fold.
As to B7, the “fold change of affinity” value amounted to 0.4 fold.
The figure for B8 is 0.6 fold.
Take B9: the “fold change of affinity” value was 1.8 fold.
In the case of B10 it was 0.5 fold; in that of B11, 0.6 fold.
For B12, the “fold change of affinity” value was found to be 0.1 fold.
Consider B13, for which the “fold change of affinity” value amounted to 0.6 fold.
Consider B14, for which the “fold change of affinity” value came out at 0.6 fold.
